To fix the notation:
B7: monoclonal antibody TC2 (antibody, mouse IgG1, V domains shown)
VH: QVQLKQSGPGLLQPSQSLSITCTVSGFSLTYYGVHWVRQSPVKGLEWLGVIWSGGDTDYDTTFISRLSISKDNSKGQVFFKMTSLQTDDTAIYYCARGRTYGIHFDYWGQGTTLTVSS
VL: DIVMSQSPSSLAVSVGEKVTMSCKSSQSLFNSRTRKNYLAWYQQKPGQSPKVLIYWASTRESGVPDRFTGSGSGTDFTLTISSVQAEDLAIYYCKQFYDLWTFGGGTKLEIKR
notes: also called mAb TC2; ECACC 02110742

Positions of bridges follow the written chain, without caps; N, C: chain ends. No end group written: not given here.

In one assay the target is T1, monoclonal antibody 3-9.
T1 construct: Antibody from State University of New York; also called mAb 3-9
As to the kind of experiment: SPR, mAb 3-9 immobilised, phagemid injected. The protocol: (§1) The carboxylated surface of the a dextran coated CM5 chip (Biacore, Sweden) was activated according to protocol supplied by the manufacturer. In short 0.05M N-hydroxysuccinimide (NHS)/0.2 M N-ethyl-N′-[3-(dimethylamino)propyl]carbodiimide hydrochloride (EDC), was injected over the carboxylated chip at 10 μL/min for 7 min, then 50 μg/mL rabbit anti-mouse IgG polyclonal antibody in 10 mM acetate buffer, pH 5.0 is injected at 10 μL/min for 7 min, and finally the chip is blocked by injection of 1 M ethanolamine at 10 μL/min for 7 min. Immobilization of mouse monoclonal antibodies on the dextran coated chip was performed in the same way.
(§2) Antibodies were covalently immobilized on a dextran coated CM5 chip as described in Example 2. Phages were diluted 10-fold in HBS-EP and injected at 10 μL/min for 3 min. The amounts of phagemid bound was recorded in real time and expressed in response units (RU). To evaluate blocking by holoTC, 1 μM of holoTC was injected at 10 μL/min for 5 min prior to the injection of phagemids at 10 μL/min for 3 min. Inhibition was computed as the number of RU of phagemid bound to 3C4 with pretreatment with holoTC divided with the number of RU bound without pretreatment, times 100.

Assay [1] addresses T2, monoclonal antibody 3C4.
T2 construct: also called mAb 3C4; 3C4 (3CY)
Nature of the assay: phage ELISA, coated mAb 3C4, 10^10 phagemid per well. The protocol: (§3) Microtitre plates were coated with 100 μL, 1 μg/mL mAb 3C4 or unrelated control antibody in PBS over night at 4 C. Remaining binding sites were blocked with 20 mg/mL bovine serum albumin (BSA) in PBS for 1 h. Some wells were only coated with BSA. Monoclonal packaged phagemids were added at a concentration of 10¹⁰ to 10⁸ cfu per well in PBS and incubated for 1 h. Preparations of packaged phagemids were centrifuged to remove aggregates. Wells were washed 6 times with PBS containing 0.1% Tween-20 and 3 times with PBS. For detection of bound phages 100 μL of horse-radish peroxidase (HRP) conjugated anti-[…] antibody (e.g. Pharmacia) diluted 1/5000 in PBS was added to each well and incubated for 1 h at ambient temperature. ELISA plates were washed 5 times with PBS containing 0.1% Tween-20 and 3 times with PBS. The chromogenic substrate o-Phenyldiamine in citric acid, pH 4.0 supplemented with H₂O₂ was added and the color generating reaction was stopped after 2-5 min by addition of 2 M H₂SO₄.
Background: An ELISA detects its analyte on a solid surface through an enzyme-linked reagent.

For assay [2], the target named is T2, monoclonal antibody 3C4. As to the kind of experiment: SPR, phagemid bound to 3C4 after 1 uM holoTC (competitor). The protocol:
as §1, §2
Target sequence in this assay (VH, as listed by the source, chain 1 of 2): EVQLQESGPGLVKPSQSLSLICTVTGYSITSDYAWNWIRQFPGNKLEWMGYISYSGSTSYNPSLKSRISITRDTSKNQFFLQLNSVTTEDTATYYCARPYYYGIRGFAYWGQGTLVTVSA
Target sequence in this assay (VL, as listed by the source, chain 2 of 2): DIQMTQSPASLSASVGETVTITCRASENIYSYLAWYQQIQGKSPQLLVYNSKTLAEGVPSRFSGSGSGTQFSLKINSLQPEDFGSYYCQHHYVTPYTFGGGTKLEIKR

Assay [3] deals with T2, monoclonal antibody 3C4. Nature of the assay: phage ELISA, coated mAb 3C4, 10^8 phagemid per well. The protocol: as §3
Target sequence in this assay (VH, as listed by the source, chain 1 of 2): as the sequence (VH, as listed by the source, chain 1 of 2) above
Target sequence in this assay (VL, as listed by the source, chain 2 of 2): as the sequence (VL, as listed by the source, chain 2 of 2) above
The target of assay [4] is T2, monoclonal antibody 3C4. As to the kind of experiment: SPR, 3C4 immobilised, phagemid injected. The protocol:
as §1, §2
Target sequence in this assay (VH, as listed by the source, chain 1 of 2): as the sequence (VH, as listed by the source, chain 1 of 2) above
Target sequence in this assay (VL, as listed by the source, chain 2 of 2): as the sequence (VL, as listed by the source, chain 2 of 2) above
A general note: SPR reads the build-up and loss of mass on a sensor chip optically.

Assay [5] has as its target T2, monoclonal antibody 3C4. As to the kind of experiment: phage ELISA, coated mAb 3C4, 10^9 phagemid per well. The protocol:
as §3
Target sequence in this assay (VH, as listed by the source, chain 1 of 2): as the sequence (VH, as listed by the source, chain 1 of 2) above
Target sequence in this assay (VL, as listed by the source, chain 2 of 2): as the sequence (VL, as listed by the source, chain 2 of 2) above

Assay [6] deals with T2, monoclonal antibody 3C4. Nature of the assay: SPR, mAb 3C4 immobilised, phagemid injected. How it is done: as §1, §2
Target sequence in this assay (VH, as listed by the source): as the sequence (VH, as listed by the source, chain 1 of 2) above
In assay [7] the target is T2, monoclonal antibody 3C4. Nature of the assay: SPR, inhibition of phagemid binding to 3C4 by 1 uM holoTC (competitor). The protocol: as §1, §2
Target sequence in this assay (VH, as listed by the source, chain 1 of 2): as above
Target sequence in this assay (VL, as listed by the source, chain 2 of 2): as the sequence (VL, as listed by the source, chain 2 of 2) above
Assay [8] addresses T3, human holotranscobalamin (holoTC) (human, UniProt P20062 19-427, cobalamin bound (holo form, non-covalent)).
T3 construct: Recombinant human holoTC in the SPR work; also called holo-TCII
T3 chain: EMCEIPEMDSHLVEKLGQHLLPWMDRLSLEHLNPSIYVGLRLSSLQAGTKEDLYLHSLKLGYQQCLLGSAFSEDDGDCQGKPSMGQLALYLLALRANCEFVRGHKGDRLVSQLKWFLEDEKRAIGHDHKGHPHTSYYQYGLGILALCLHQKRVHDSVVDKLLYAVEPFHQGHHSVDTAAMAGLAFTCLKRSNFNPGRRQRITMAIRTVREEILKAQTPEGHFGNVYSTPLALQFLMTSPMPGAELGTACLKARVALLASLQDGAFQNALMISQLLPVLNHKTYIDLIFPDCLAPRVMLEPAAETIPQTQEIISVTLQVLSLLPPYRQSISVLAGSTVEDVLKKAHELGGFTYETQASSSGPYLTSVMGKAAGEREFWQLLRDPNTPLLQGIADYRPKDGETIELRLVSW
Nature of the assay: SPR (BIAcore), scFv immobilised.

Assay [9] deals with T3, human holotranscobalamin (holoTC). As to the kind of experiment: SPR (BIAcore), scFv immobilised; head read as 10^-4.
Assay [10] has as its target T4, human apotranscobalamin (apoTC) (human, UniProt P20062 19-427).
T4 construct: Same chain as holoTC without cobalamin; also called apo-TCII
T4 chain: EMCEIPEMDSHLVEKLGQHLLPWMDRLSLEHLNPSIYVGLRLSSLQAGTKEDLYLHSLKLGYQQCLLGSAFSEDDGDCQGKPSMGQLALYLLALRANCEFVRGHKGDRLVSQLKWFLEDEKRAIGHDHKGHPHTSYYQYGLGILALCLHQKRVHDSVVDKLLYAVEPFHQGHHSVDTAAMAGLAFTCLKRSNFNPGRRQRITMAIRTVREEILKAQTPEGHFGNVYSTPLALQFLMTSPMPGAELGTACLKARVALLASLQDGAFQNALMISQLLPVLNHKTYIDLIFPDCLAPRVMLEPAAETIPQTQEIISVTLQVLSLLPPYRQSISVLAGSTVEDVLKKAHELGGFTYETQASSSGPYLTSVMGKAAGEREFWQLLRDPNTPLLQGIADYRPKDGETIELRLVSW
Described as above.

Assay [11] deals with T3, human holotranscobalamin (holoTC). Nature of the assay: SPR, scFv injected over immobilised holoTC. How it is done: Selected scFv antibodies were evaluated by surface plasmon resonance essentially as described in Example 2. Purified antibody preparations were injected over a chip with immobilized holoTC. The holoTC chip was prepared by binding holoTC to a chip prepared as described in 2.1 or by binding biotinylated holoTC on a streptavidin coated SA chip (Biacore, Sweden).

The target is the same in assay [12]. As to the kind of experiment: SPR (Biacore), mAb on chip, TC injected.
The target is the same in assay [13]. As to the kind of experiment: SPR (Biacore); Kd values for holoTC.
Assay [14] shares this target. As to the kind of experiment: SPR; holoTC against apoTC.
Assay [15] shares this target. As to the kind of experiment: SPR (BIAcore), antibody immobilised; head read as 10^-4.
For assay [16], the target named is T4, human apotranscobalamin (apoTC). Described as above.
The target of assay [17] is T3, human holotranscobalamin (holoTC). Nature of the assay: SPR (BIAcore), antibody immobilised.
Assay [18] has as its target T4, human apotranscobalamin (apoTC). Nature of the assay: SPR (BIAcore), antibody immobilised.
The assay “monoclonal antibody TC2” deals with B7. Nature of the assay: SPR, mAb immobilised, phagemid injected (Table 5; 1 RU). How it is done:
as §1, §2

B1: phagemid CS1-11p (phage-displayed disulfide cyclized 13 mer peptide) (peptide)
peptide: CSFRYQWDMFRCS
modifications: disulfide 1-12 (inferred); also: displayed on phage (phagemid)
For the molecule B1, the “phagemid bound (RU)” value came out at 0 RU in the assay with monoclonal antibody 3-9 and 32 RU with monoclonal antibody 3C4 [6]. Further, the “ELISA (absorbance units)” value in the assay with monoclonal antibody 3C4 [1] was found to be 0.645 absorbance units; with monoclonal antibody 3C4 [3], 0.348 absorbance units; with monoclonal antibody 3C4 [5], 0.559 absorbance units. The “Block by holoTC (RU)” value in the assay with monoclonal antibody 3C4 [2] came to 0 RU. In addition, the “Phage bound (RU)” value with monoclonal antibody 3C4 [4] came to 32 RU. In the assay with monoclonal antibody 3C4 [7], the “Inhibition (%)” value worked out at 100%.

B2: single chain antibody fragment TC2_ScFv (scFv)
scFv: QVQLKQSGPGLLQPSQSLSITCTVSGFSLTYYGVHWVRQSPVKGLEWLGVIWSGGDTDYDTTFISRLSISKDNSKGQVFFKMTSLQTDDTAIYYCARGRTYGIHFDYWGQGTTLTVSSGGGGSGGGGSGGGGSDIVMSQSPSSLAVSVGEKVTMSCKSSQSLFNSRTRKNYLAWYQQKPGQSPKVLIYWASTRESGVPDRFTGSGSGTDFTLTISSVQAEDLAIYYCKQFYDLWTFGGGTKLEIKR
notes: A C-terminal tag may be present; also called scFv TC2
Regarding B2, in [8], the Ka turned out to be 3e+06 M⁻¹ and the on-rate constant (kon) worked out at 4000 M⁻¹ s⁻¹. For the same molecule, the dissociation rate constant (koff) in [9] amounted to 0.0015 s⁻¹. For the same molecule, the koff in [10] was 0.0015 s⁻¹.

B3: phagemid CS1-2p (phage-displayed disulfide cyclized 13 mer peptide) (peptide)
peptide: CSLFYLWDQDRCS
modifications: disulfide 1-12 (inferred); also: displayed on phage (phagemid), coat fusion not given here
Turning to B3, the “ELISA (absorbance units)” value is 0.287 absorbance units with monoclonal antibody 3C4 [1], 0.245 absorbance units with monoclonal antibody 3C4 [3] and 0.224 absorbance units with monoclonal antibody 3C4 [5]. The “Phage bound (RU)” value with monoclonal antibody 3C4 [4] came out at 4 RU.

B4: mutated scFv 3C4 clone 3.9G2 (scFv)
scFv: EVQLQESGPGLVKPSLSLSLICTVTGYSIASDYTWNWIRQFPGNKLEWMGYISYSGSTSYNPSLKSRISITRDTSKNQFFLQLNSVTTEDTATYYCARPYYYGIRGFAYWGQGTLVTVSAGGGGSGGGGSGGGGSDIQMTQSPASLSASVGETVTITCRASENIYSYLAWYQQIQGKSPQLLVYNSKTLTEGVPSRFSGSGSGTQFSLKINSLQPEDFGSYYCQHHYVTPYTFGGGTKLEIKR
notes: A190T stands in the next printed row (r19)
Turning to B4, in [11], the Kd turned out to be 150 nM, the dissociation rate constant (koff) is 0.00059 s⁻¹ and the kon was 3800 M⁻¹ s⁻¹.

B5: phagemid CS1-9p (phage-displayed disulfide cyclized 13 mer peptide) (peptide)
peptide: CSGLYPWDMFRCS
modifications: disulfide 1-12 (inferred); also: displayed on phage (phagemid)
Take B5: the entries for the “ELISA (absorbance units)” value with monoclonal antibody 3C4 [1], in the assay with monoclonal antibody 3C4 [3] and in the assay with monoclonal antibody 3C4 [5] were 0.769 absorbance units, 0.259 absorbance units and 0.539 absorbance units, respectively. The “Block by holoTC (RU)” value with monoclonal antibody 3C4 [2] turned out to be 1 RU. Moreover, the “Phage bound (RU)” value with monoclonal antibody 3C4 [4] worked out at 35 RU. In addition, in the assay with monoclonal antibody 3C4 [7], the “Inhibition (%)” value worked out at 87%.

B6: phagemid CS1-29p (phage-displayed disulfide cyclized 13 mer peptide) (peptide)
peptide: CSGLYPWDYFMCS
modifications: disulfide 1-12 (inferred); also: displayed on phage (phagemid)
B6: the “ELISA (absorbance units)” value with monoclonal antibody 3C4 [1] was found to be 0.335 absorbance units; with monoclonal antibody 3C4 [3] it was 0.156 absorbance units; with monoclonal antibody 3C4 [5], 0.189 absorbance units. Also, the “Block by holoTC (RU)” value in the assay with monoclonal antibody 3C4 [2] was determined as 3 RU. Besides, in the assay with monoclonal antibody 3C4 [4], the “Phage bound (RU)” value amounted to 20 RU. For the same molecule, in the assay with monoclonal antibody 3C4 [7], the “Inhibition (%)” value came to 85%.
B7: the Kd in assay [12] and in assay [13] was 1 to 5 nM throughout. For the same molecule, the “holo/apo Specificity (-fold)” value in [14] is 1 -fold. Moreover, the koff came out at 0.0004 s⁻¹ in assay [15] and 0.0015 s⁻¹ in assay [16]. The Ka in [17] was found to be 2.5e+08 M⁻¹; in assay [18], 7e+07 M⁻¹. For the same molecule, the kon in assay [17] and in assay [18] was 100000 M⁻¹ s⁻¹ in each case.

B8: phagemid CS1-6p (phage-displayed disulfide cyclized 13 mer peptide) (peptide)
peptide: CSFRYLWDQDRCS
modifications: disulfide 1-12 (inferred); also: displayed on phage (phagemid)
For the molecule B8, the “phagemid bound (RU)” value in the assay with monoclonal antibody 3-9 worked out at 0 RU; in the assay with monoclonal antibody 3C4 [6] it was 45 RU. For the same molecule, the “ELISA (absorbance units)” value came out at 1.06 absorbance units with monoclonal antibody 3C4 [1], 0.406 absorbance units with monoclonal antibody 3C4 [3] and 0.664 absorbance units with monoclonal antibody 3C4 [5]. Also, the “Block by holoTC (RU)” value with monoclonal antibody 3C4 [2] came out at 3 RU. The “Phage bound (RU)” value in the assay with monoclonal antibody 3C4 [4] worked out at 24 RU. The binding result in the assay with monoclonal antibody TC2 is listed as “no binding”. For the same molecule, the “Inhibition (%)” value in the assay with monoclonal antibody 3C4 [7] was 88%.

B9: phagemid CS1-31p (phage-displayed disulfide cyclized 13 mer peptide) (peptide)
peptide: CSFFYSLCYCWCS
modifications: disulfide (positions not given here); also: four Cys, disulfide pairing not given here
notes: also called CSI-31p
For B9, the “phagemid bound (RU)” value with monoclonal antibody 3-9 was determined as 0 RU; with monoclonal antibody 3C4 [6], 42 RU. In addition, the “ELISA (absorbance units)” value with monoclonal antibody 3C4 [1] is 0.298 absorbance units; in the assay with monoclonal antibody 3C4 [3] it was 0.152 absorbance units; with monoclonal antibody 3C4 [5], 0.165 absorbance units. Also, the “Block by holoTC (RU)” value with monoclonal antibody 3C4 [2] was found to be 5 RU. Besides, in the assay with monoclonal antibody 3C4 [4], the “Phage bound (RU)” value was 42 RU. Besides, the “Inhibition (%)” value with monoclonal antibody 3C4 [7] turned out to be 88%.

The term kon denotes a measure of how fast the partners come together. By koff is commonly meant a measure of how fast the partners let go of each other. Higher therefore signals a short-lived complex. The term Kd denotes the concentration at which binding is half-saturated. A higher Kd goes with a looser complex.

The record behind these values is US20140147868A1 (published 2014).
